Measured values reported in patent US20140287471A1, “VARIANT CBH I POLYPEPTIDES WITH REDUCED PRODUCT INHIBITION” (BP CORPORATION NORTN AMERICA INC., priority 2011, published 2014).
Residue numbers refer to the chain shown, from its start. Names may count otherwise. Read-outs that look alike come from different tables or passages of the source. Blank lines part the entries; values can stand above or below the molecule they belong to.

Key:
Assay type in all cases: biochemical
[1] = Saccharification assay (bagasse assay) with and without β-glucosidase (Example 1); details: T. reesei CBH I variants; activity without β-glucosidase (BG) relative to with BG
Experimental: This assay measures the activity of CBH I on bagasse, a lignocellulosic substrate. Reactions were run in 10 ml vials with 5% dilute acid pretreated bagasse (250 mg solids per 5 ml reaction). Each reaction contained 4 mg CBH I enzyme/g solids, 200 mM MES pH 6, kanamycin, and chloramphenicol. Reactions were incubated at 35° C. in hybridization incubators (Robbins Scientific), rotating at 20 RPM. Time points were taken by transferring a sample of homogenous slurry (150 μl) into a 96-well deep well plate and quenching the reaction with stop buffer (450 μl of 500 mM sodium carbonate, pH 10). Time point measurements were taken every 24 hours for 72 hours.
(§1) Tolerance to cellobiose (or inhibition caused by cellobiose) was tested in two ways in the CBH I assays. A direct-dose tolerance method can be applied to all of the CBH I assays (i.e., 4-MUL, PASC, and/or bagasse assays), and entails the exogenous addition of a known amount of cellobiose into assay mixtures. A different indirect method entails the addition of an excess amount of β-glucosidase (BG) to PASC and bagasse assays (typically, 1 mg β-glucosidase/g solids loaded). BG will enzymatically hydrolyze the cellobiose generated during these assays; therefore, CBH I activity in the presence of BG can be taken as a measure of activity in the absence of cellobiose. Furthermore, when activity in the presence and absence of BG are similar, this indicates tolerance to cellobiose.

[2] = 4-MUL assay with and without cellobiose (Example 1)
[3] = 4-MUL cellobiose tolerance/inhibition assay, dose-response IC50 (Example 2); details: CBH I levels normalized to 5 μg/mL
Method in brief: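 CBH I variant supernatants (5 μg/mL final, or undiluted if lower) on 0.5 mM 4-MUL in 100 mM MES pH 6 with 25 mM gluconolactone, fluorescence ex/em 365/450 nm. Activity measured at 6–8 cellobiose levels up to 100 mM; IC50 from four-parameter fit, bottom constrained to knockout background.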

[4] = PASC assay, cellobiose dose-response (Example 1); details: FIG. 3
Experimental: This assay measures the activity of CBH I using PASC as the substrate. During the assay, the concentration of PASC is monitored by a fluorescent signal derived from calcofluor binding to PASC (ex/em 365/440 nm). The assay is initiated by mixing enzyme (15 μl) and reaction buffer (85 μl of 0.2% PASC, 200 mM MES, pH 6), and then incubating at 35° C. while shaking at 225 RPM. After 2 hours, one reaction volume of calcofluor stop solution (100 μg/ml in 500 mM glycine pH 10) is added and fluorescence read-outs obtained (ex/em 365/440 nm).
as §1

B1: R268A/R411K: T. reesei CBH I with R268A and R411K substitutions (protein, UniProt P62694 18-513, looked up, variant R268A R411K)
Exoglucanase 1: QSACTLQSETHPPLTWQKCSSGGTCTQQTGSVVIDANWRWTHATNSSTNCYDGNTWSSTLCPDNETCAKNCCLDGAAYASTYGVTTSGNSLSIGFVTQSAQKNVGARLYLMASDTTYQEFTLLGNEFSFDVDVSQLPCGLNGALYFVSMDADGGVSKYPTNTAGAKYGTGYCDSQCPRDLKFINGQANVEGWEPSSNNANTGIGGHGSCCSEMDIWEANSISEALTPHPCTTVGQEICEGDGCGGTYSDNAYGGTCDPDGCDWNPYRLGNTSFYGPGSSFTLDTTKKLTVVTQFETSGAINRYYVQNGVTFQQPNAELGSYSGNELNDDYCTAEEAEFGGSSFSDKGGLTQFKKATSGGMVLVMSLWDDYYANMLWLDSTYPTNETSSTPGAVKGSCSTSSGVPAQVESQSPNAKVTFSNIKFGPIGSTGNPSGGNPPGGNRGTTTTRRPATTTGSSPGPTQSHYGQCGGIGYSGPTVCASGTTCQVLNPYYSQCL
Tolerance to cellobiose accumulation % Activity in Bagasse Assay (+/−BG) [1]: 94%
Tolerance to 250 mg/L cellobiose % Activity in 4-MUL Assay (+/−Cellobiose) ([2]; T. reesei CBH I variants, activity with 250 mg/L cellobiose relative to without cellobiose): 97%

B2: R411K: T. reesei CBH I with an R411K substitution (protein, UniProt P62694 18-513, looked up, variant R411K)
Exoglucanase 1: B1 Exoglucanase 1 with A251R
Tolerance to cellobiose accumulation % Activity in Bagasse Assay (+/−BG) [1]: 89%
IC50 ([3]; Secondary screening, cellobiose range 0.00085-100 mM, read-out: IC50): 3060 µM
IC50 ([3]; secondary screening, cellobiose range 0.0001-100 mM, read-out: Average IC50): 2080 µM

IC50 of cellobiose (PASC assay) [4]: 3000 µg/mL
B3: wild type T. reesei CBH I: wild type T. reesei CBH I (SEQ ID NO:2) (protein, listed as Trichoderma reesei)
chain: MYRKLAVISAFLATARAQSACTLQSETHPPLTWQKCSSGGTCTQQTGSVVIDANWRWTHATNSSTNCYDGNTWSSTLCPDNETCAKNCCLDGAAYASTYGVTTSGNSLSIGFVTQSAQKNVGARLYLMASDTTYQEFTLLGNEFSFDVDVSQLPCGLNGALYFVSMDADGGVSKYPTNTAGAKYGTGYCDSQCPRDLKFINGQANVEGWEPSSNNANTGIGGHGSCCSEMDIWEANSISEALTPHPCTTVGQEICEGDGCGGTYSDNRYGGTCDPDGCDWNPYRLGNTSFYGPGSSFTLDTTKKLTVVTQFETSGAINRYYVQNGVTFQQPNAELGSYSGNELNDDYCTAEEAEFGGSSFSDKGGLTQFKKATSGGMVLVMSLWDDYYANMLWLDSTYPTNETSSTPGAVRGSCSTSSGVPAQVESQSPNAKVTFSNIKFGPIGSTGNPSGGNPPGGNPPGTTTTRRPATTTGSSPGPTQSHYGQCGGIGYSGPTVCASGTTCQVLNPYYSQCL
cellobiose concentration at which inhibition starts (PASC assay) [4]: around 1 g/L
% activity remaining in 4-MUL assay in the presence of cellobiose ([2]; T. reesei CBH I and R268/R411 variants, 250 mg/L cellobiose): 23%
